Data: PMC6303335 (2018)

Molecular target: E194, the type I interferon binding protein (IFNα/βBP) from ectromelia virus (ECTV) Naval strain (Ectromelia virus, strain Naval)
Test: SPR

B1: mouse IFNα subtype A (ligand)
chain: CDLPHTYNLRNKRALKVLAQMRRLPFLSCLKDRQDFGFPLEKVDNQQIQKAQAIPVLRDLTQQTLNLFTSKASSAAWNATLLDSFCNDLHQQLNDLQTCLMQQVGVQEPPLTQEDALLAVRKYFHRITVYLREKKHSPCAWEVVRAEVWRALSSSVNLLPRLSEEKE
**Q.** For B1, which koff is on record?
**A.** 0.000331 s⁻¹
